Assay results: US20260231968A1, “AN ECO-FRIENDLY, SUSTAINABLE FOOD PRESERVATIVE” (priority 2023, published 2026)

What was measured:
[1] = tested on: microbial load of plant-based ground meat (soy protein); assay: Microbial load of plant-based ground meat (soy protein) with psoriasin and/or nisin; assay type: cell-based; settings: 0.65% w/w His-psoriasin; 1.5 mg nisin; 5 g soy protein in 7.5 ml PBS
Experimental: The ability of psoriasin to inhibit bacterial and fungal growth, with and without nisin was evaluated. Commercial plant-based ground meat (soy protein) was divided into 4 groups, each containing 5 grams of soy protein. The sample designated as “non-treated” contained 5 g of soy protein in 7.5 ml of PBS×1. The sample designated as “psoriasin” contained 5 g of soy protein in 7.5 ml of PBS×1 with 0.65% w/w of His-psoriasin. The sample designated as “nisin” contained 5 g of soy protein in 7.5 ml PBS×1 with 1.5 mg of nisin. The combined treatment group (“psoriasin+nisin”) contained 5 g of soy protein with both his-psoriasin and nisin at the same concentrations. The samples were incubated in […], and the microbial load was evaluated by seeding the different test groups on LB-agarose plates containing no antibiotics or on YAG-agarose plates with the antibiotics.

[2] = tested on: microbial sample isolated from soy protein; assay: Growth of microbes isolated from soy protein in LB or RPMI; assay type: cell-based
Experimental: Psoriasin was applied to a microbial sample isolated from soy protein that was incubated in RPMI or LB medium, with no addition of external antibiotics. Liquid RPMI 1640 (5 ml) medium w/o Pen/strep antibiotics were inoculated with a colony that grew on an LB agarose plate from Example 8. The inoculated medium was incubated in a 37° C. shaker incubator overnight. Only the medium without antibiotics became turbid as a result of the endogenic bacterial growth. The isolated bacteria were used in dose-response experiments in RPMI 1640 and LB. Microbial growth was monitored in a 96-well plate by reading the absorbance at 600 nm every 10 minutes while adjusting the temperature to 37° C. In the rich LB medium, psoriasin was effective at a concentration of 50 μM (FIG. 9A). In RPMI, psoriasin was effective in concentrations below 1 μM (FIG. 9B).

C. albicans [3] = assay: Fungal growth in natural apple and beetroot juice; assay type: cell-based, Candida albicans; settings: pH=7, 40 μM and 400 μM
Experimental: Natural beetroot and apple juice without preservatives, was diluted ×0.5 with PBS×1 to avoid high background absorbance. The juice was titrated to pH=7.4 with 1M NaOH, inoculated with C. albicans (1 colony/10 ml), treated with 40 μM and 400 μM His-psoriasin, and monitored with the same measuring program as the RPMI-MOPS experiments. In order to evaluate the effect of His-psoriasin on fungal growth in juice, natural apple and beetroot juices were inoculated without any preservatives with C. albicans. The samples were titrated to pH=7 and treated with 40 μM and 400 μM of recombinant His-psoriasin. The samples were placed in a 96 well-plate and absorbance at 600 nm was monitored vs. time.

[4] = tested on: initial microbial load of plant-based meat substitute; assay: Microbial load of plant-based meat substitute during storage; assay type: cell-based
Experimental: The ability of psoriasin to extend the shelf life of a plant-based meat substitute was examined under standard storage conditions. Three groups, each stored as an open package at […], were assessed over the course of 16 days. The groups included i) an untreated control, ii) a nisin-treated sample, and iii) a psoriasin-treated sample at 0.65%. A single source of the plant-based meat substitute was used and each group was reproduced in triplicate. The microbial load of the plant-based meat substitute samples was based on the initial microbial load without the addition of antibiotics and without the addition of mold, yeast or bacteria. Samples from each group were taken on days 1, 3, 5, 10, 11 and 16 and total CFU count was determined by plating on LB and PDA agar petri dishes.

C. albicans [5] = assay: Anti-fungal activity after lyophilization or oven drying; assay type: cell-based, Candida albicans
Experimental: The activity of psoriasin was assessed following lyophilization and oven drying. […] In particular, psoriasin was lyophilized and then tested for antimicrobial activity against C. albicans at concentrations of 0.5, 0.25, and 0.125 μM compared with psoriasin that had not been lyophilized.
In another experiment, psoriasin was oven-dried at 50° C. for 24 hours. Subsequently, psoriasin was tested for antimicrobial activity against C. albicans at concentrations of 0.5, 0.25, 0.125, 0.0625 μM compared with psoriasin that was not dried.

Aspergillus flavus = assay: Microbial Growth Inhibition Test, broth microdilution optical method; assay type: cell-based
Experimental: The IC90 of psoriasin for several microorganisms was determined by Microbial Growth Inhibition Tests. The tests were performed using the Broth Microdilution Optical Method based on standardized protocols M27 (yeasts) and M38 (filamentous fungi) of the Clinical and Laboratory Standards Institute. […] MOPS, LB (Luria-Bertani), and TSB ([…]) medium types were used, depending on the species being tested. The absorbance was calibrated to each species, and was measured between 450 nm to 650 nm.
In addition, ethyl lauroyl arginate (LAE), a commercially available food preservative, was tested in similar growth conditions as a reference.

E. coli = assay: Thermal stability of psoriasin, E. coli standard growth assay; assay type: cell-based
Experimental: In another study, psoriasin stock (36 mg/mL in 1×PBS) was exposed to temperatures of 70° C., 80° C., and 90° C. for periods of 15, 30, and 60 minutes. After thermal exposure, the activity of the protein was assessed against E. coli in a standard growth assay with 0.4%, 0.2% or 0.1% psoriasin.

B1: psoriasin: Recombinant human psoriasin (S100a7) containing a histidine tag, amino acid sequence SEQ ID NO: 11, expression vector pET-28a (protein, listed as Homo sapiens)
chain: MSNTQAERSIIGMIDMFHKYTRRDDKIEKPSLLTMMKENFPNFLSACDKKGTNYLADVFEKKDKNEDKKIDFSEFLSLLGDIATDYHKQSHGAAPCSGGSQ
[1]
  total microbial count on LB-agarose plates containing no antibiotics: inhibited microbial growth
  total yeast/mold count on YAG plates with antibiotics: inhibited fungal/yeast growth
[2]; RPMI 1640, 37° C
  effective concentration against isolated microbes: below 1 μM
[2]; rich LB medium, 37° C
  effective concentration against isolated microbes: 50 µM
C. albicans [3]
  fungal proliferation in juice: not able to proliferate
[4]
  increase of shelf life of plant-based meat substitute: 3 Fold
[4]; Day 1
  Yeast & Mold Count: 2 × 10^2
[4]; Day 1, open package, psoriasin 0.65%
  Total CFU count: 1.2 × 10^4 CFU
[4]; Day 3
  Total CFU count: 1.2 × 10^4 CFU
  Yeast & Mold Count: 2 × 10^2
[4]; Day 5
  Total CFU count: 1.2 × 10^4 CFU
  Yeast & Mold Count: 2 × 10^2
[4]; Day 10
  Total CFU count: 6.65 × 10^5 CFU
  Yeast & Mold Count: 2 × 10^2
[4]; Day 11
  Total CFU count: 6.5 × 10^5 CFU
  Yeast & Mold Count: 2 × 10^2
[4]; Day 16
  Total CFU count: 2.4 × 10^6 CFU
  Yeast & Mold Count: 1 × 10^3
[4]; psoriasin 0.65%
  less microbial load than the other two groups (untreated, nisin): 4 logs
C. albicans [5]; 0.5, 0.25 and 0.125 μM
  activity against C. albicans after lyophilization vs not lyophilized: showed the same activity
C. albicans [5]; oven-dried at 50° C for 24 hours, 0.5, 0.25, 0.125, 0.0625 μM
  activity against C. albicans after oven drying vs not dried: showed the same activity
Aspergillus flavus; Aspergillus flavus, RPMI-MOPS
  IC90: 600 nM
Aspergillus flavus; concentrations of 0.325 μM and above
  inhibition of A. flavus growth: nearly all growth
Aspergillus flavus; concentrations of 0.6 μM and above
  inhibition of detectable A. flavus growth: 100%
E. coli; 70° C for 15, 30 and 60 minutes, all concentrations
  antimicrobial activity against E. coli after thermal exposure: retained full antimicrobial activity
E. coli; 70° C, 80° C, 90° C for 15 minutes, 0.4%, 0.2% or 0.1% psoriasin
  ability to inhibit E. coli after thermal exposure: maintained its ability to inhibit the growth of E. coli
E. coli; 80° C and 90° C for 1 hour
  antimicrobial activity against E. coli after thermal exposure: inhibited the growth of E. coli, though to a lesser extent
